Data reported in the RNAGym collection of RNA variant scans (doi:10.1073/pnas.2313332121).

B1: TPR t1 (parent)
chain: GACCAAUCUGCCCUCAGAGCUCGAGAACAUCUUCGGAUGCAGAGGAGGCAGGCUUCGGUGGCGCGAUAGCGCCAACGUCCUCAACCUCCAAUGCAUCCCACCACAUGAUGAUGCCUGAAGAGCCUUGGUUUUUUG

Variants of: B1
Experiment: polymerase ribozyme fitness, log enrichment relative to wild type (log ratio); higher = more active; in vitro selection for triplet polymerase activity
Outline: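 Mutant libraries of each subunit of a heterodimeric triplet polymerase ribozyme were built by PCR and transcribed. Each library went through one round of in vitro selection in triplicate: annealing with biotinylated primer, partner subunit and triplets, frozen incubation at −7 °C, gel excision of extended constructs, streptavidin-bead capture and RT-PCR. Input and output libraries were Illumina-sequenced; only genotypes with ≥10 input reads and ≥1 read per output were kept. Fitness is log2(genotype enrichment/wild-type enrichment), using inverse-variance-weighted replicate averages.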

Row | Variant | polymerase ribozyme fitness (log ratio)
1 | A16U G69U C89U | -1.47
2 | C28U G52C U106A U112A | -1.6
3 | G17C G36C C114G U131G | -4.72
4 | C64G C114U | -6.35
5 | G10A U87A C115G C123G | -1.54
6 | C4U G10A C11G G69U | -0.117
7 | C11A G17C G19A G39A G69U C123G | -5.74
8 | A103C A111U U116C | -4.99
9 | C8U G93C G120A | 1.29
10 | C53U C72U | -0.842
11 | G10U G48U | -0.243
12 | C64U | -0.125
13 | A105G G113U | -5.05
14 | U112C C124U G128U | -0.524
15 | G10U A27U U109A | -4.99
16 | G23U G69U | -5.44
17 | G61U C115U | -0.433
18 | U106A U126C | -0.645
19 | A18C C49G | -3.27
20 | A2U A50C C70U C101U | -3.18
21 | C8U G45A C72G | -0.658
22 | G113C U116A | -4.45
23 | G113C U116G | -3.72
24 | A37C G60U U96A G110C U134A | -2.04

Row | Variant | polymerase ribozyme fitness (log ratio)
25 | G47A C85A G117C A121C | -5.39
26 | C8U C22G C64U U112A U125A U130C | -2.33
27 | C11A C12G A27U G63U G77A | -5.74
28 | G63U U87G G117U C123A | -3.97
29 | A46G U55C C70U A100U G127A | -2.53
30 | C8U G60C U129C | -0.854
31 | C70A U87A | -1.22
32 | G10A C13U U55A C76U C97A U116G | -6.1
33 | C4U C15A G45C G61U C72A | -2.72
34 | C72G G77C A95G C101G | -2.74
35 | G36U G44A U59A G60A G77C U112C | 0.0936
36 | G17C G39A C64U | -4.45
37 | C12A U78C A84U | -1.77
38 | A27G G45U G71U U96G G120U | -4.73
39 | G47U G63A A111G G120A | -3.58
40 | A18G G69U | -1.47
41 | C20A U112A | 0.09
42 | C53U C56G C76G U125A | -0.978
43 | U7A G48U C94G U116C G120A | -2.95
44 | G10A C72U C89G G93U | -2.93
45 | C11A A16U C40U C56A | -4.65
46 | G61A C82G A105C | -2.79
47 | A46U C49G C70U A84C | -2.21
48 | U14G C20A C73U C102U U133A | -4.53

Row | Variant | polymerase ribozyme fitness (log ratio)
49 | C13G A119G | -0.865
50 | C64U G77C C79U C98A A121U U133C | -2.71
51 | A26C G61C U112G | -5.78
52 | G10U U87G C88G C98U G113A | -1.98
53 | U7C C64U A100U | -0.384
54 | G10C C13G G35A G61A C114U | -5.47
55 | G44A U78G | -1.09
56 | C56A C72G U78C | -1.29
57 | C73A C79G U112A | -0.66
58 | C11U C49G A74U C123G | 0.499
59 | G63A G110C | -5.57
60 | A18U A83U G120A | -2.42
61 | U30C C49G G63U C70U A84C C114U | -6.54
62 | U33C C101A A121U | -4.76
63 | C8U G117A | 0.294
64 | G71A G93A | -1.39
65 | G10U C34G G65U A66C C123U U125A G128U | -7.34
66 | C56A G71U C82U | -1.78
67 | C49A A105C A118G U130A | -3.62
68 | G48A U81A C98U | -2.94
69 | G60A U81G A91G U116C | -7.03
70 | C12A C88G G128U U129A | -4.77
71 | U54A G110A C115G | -4.1
72 | G45U C56G | -2.16

Row | Variant | polymerase ribozyme fitness (log ratio)
73 | C8G C34U | -3.12
74 | C20U U32G C73G C97U C123U | -5.73
75 | C28U G47U G93A | -5.35
76 | U7C A90C G93A G117U U132A | -4.79
77 | C13U A16U G45U G60U A95U C97U | -2.68
78 | C15G G52A | -2.6
79 | G42C C124A | -0.168
80 | A29U U112G | -0.993
81 | A18C A50U G60U C102A A119G G127U | -7.23
82 | U32C U92A U96C U132A | -2.97
83 | G71C A111U | -4.31
84 | G45C A84G | -1.49
85 | C70U C72G U92A A108U U112C G113A A121G | -6.12
86 | C56U G65U C114U | -6.33
87 | G77A U92C G117C | -5.8
88 | G47A G57U G69U G117A U133G | -1.83
89 | U7G A29G C89A C115A G122A | -1.64
90 | C56G C70G | -3.88
91 | C8A G36A G57A G61A C72G | -1.48
92 | C88U C101U U106G C123A | -1.23
93 | A5U C70G U106A C114U | -5.21
94 | G52U C79A | -1.05
95 | A18C A95U | -3.68
96 | G10U G44U C53U U96A U109C | -7.37

Row | Variant | polymerase ribozyme fitness (log ratio)
97 | C86G G113C | -2.62
98 | U9C G61A | 0.487
99 | A18U C85G G113C | -5.2
100 | C89A U96A C115A | -2.16
101 | U7G G93U G113A | -1.85
102 | G10C A41C C70U | -3.72
103 | C3A G48A A84G | -1.29
104 | U9A C62U G63A A95C A103G U109A | -7.15
105 | G69U C114U | -0.582
106 | C73A C94U U130A | -0.716
107 | C20G C40U G42U C56A | -4.45
108 | G57U C99A C124A | -4.71
109 | A46C G77U A100C | -2.17
110 | G48C C56A | -1.68
111 | A74U U92G | -3.01
112 | U7A G71C G110C | -6.39
113 | C64U C76G C85A | -3.38
114 | U92A G113U | -3.75
115 | A6G A41C C56A G69C G93U G117C | -6.65
116 | C31G G122A | -5.66
117 | C40U G117U | -1.71
118 | C70U G110U U112G | -6.05
119 | C62U U112G | -0.737
120 | A37U A75U | -0.0341

Row | Variant | polymerase ribozyme fitness (log ratio)
121 | C40U A84C | -0.985
122 | C80U C115U | -2.06
123 | C11G C22U A50U C56A G57U C89U | -6.34
124 | C72G U109G U125G | -4.97
125 | C49G A91U | -2.92
126 | G48C G110C U116G A119G C123A | -5.26
127 | C15G G45C C102A G113U G122A | -5.64
128 | C13A C15A G47A C123U G127C | -3.95
129 | G61A U87A C124A | 1.93
130 | G47C C80U | -3.51
131 | A5U G110U U130A | -2.41
132 | C8U A46G U54C C56A | -0.306
133 | U78C A84C G113U G128A | -4.29
134 | C70A C82U A84C U87C U116A C123G U131C | -1.57
135 | C62G G110A | -3.33
136 | C11A U38G C56U A90U | -3.35
137 | A18U A46U G61U A90C C115G | -2.56
138 | G10A G17A A37G G42U C53A C64U A100U | -5.75
139 | A111C G117A | -2
140 | C34U G61C C80U A83G | -7.08
141 | C12G A29U G117A | -2
142 | A37U G117C G122U | -5.5
143 | C20G G52U | -5.6
144 | G19A G52A G113A G127A | -2.38

Row | Variant | polymerase ribozyme fitness (log ratio)
145 | A43U C115A C124U | -0.864
146 | C15U A18U C49G C72A U92C | -5.58
147 | G17C G69U | -2.68
148 | C11A U33G C56G A103G G122A | -6.79
149 | G52C C53U G71U | -0.538
150 | C8A C104U G122A | 0.724
151 | C70U G120C | 0.206
152 | G10U C76A G127C | -2.18
153 | C8U A29U C72A | -1.79
154 | G44U G60C | -0.794
155 | C34G G36A | -6.25
156 | A6U G45U | -1.59
157 | G42A G117C | -3.8
158 | U7C G52U C98U C124A | -0.108
159 | U7A U106G G128C | -4.39
160 | C8A A75G G117A A121U | 1.31
161 | U9C C15G U78G U96C C124U | -0.775
162 | C94A A100G C114U C124G | -5.66
163 | G69U G71U G120U U126A | -0.887
164 | G45A G52C G57U | -2.04
165 | U106G G117U | -4.18
166 | C3A C4U A46U C114U | -4.9
167 | A2G C123U | 1.06
